Assay results published in US20220204623A1 (BIO THERA SOLUTIONS, published 2022).

Tests used:
[1] = target: hPD-1 (Sino Biological Inc., Catalog No.: 10377-H03H-B) (human) (UniProt Q15116); test: BLI (Octet) as in Example 4, biotinylated hPD-1 on streptavidin biosensor
[2] = target: T1, hPD-1 (Sino Biological Inc., Catalog No.: 10377-H03H-B) (human, UniProt Q15116 25-167); test: as above
T1 construct: Bought protein; also called human PD-1; purified hPD-1
Description: (§1) A streptavidin biosensor was pre-wetted by immersing in PBS in a well for 10 minutes, and then the biosensor was equilibrated with PBS for 2 minutes. The biosensor was immersed in the solution of 20 μg/mL biotinylated hPD-1 in PBS for 5 minutes to couple with biotinylated hPD-1, and then was equilibrated with PBS for 2 minutes. The biosensors were placed in wells containing antibody solutions of various concentrations (0.125 to 2 nM, SDS-PAGE purity >99%) to observe their binding to the anti-PD-1 antibody, and the binding was monitored and measured for 30 minutes. After the biosensor was transferred to PBS, dissociation was monitored and measured for 90 minutes. The observed binding and dissociation rates (kbinding and kdissociation) were fitted with a 1:1 binding global fit model containing all test concentrations, and the equilibrium binding constant KD was calculated.
The amino acid sequences of VL and VH regions of the related antibodies are shown in the sequence listing.

[3] = target: T2, hPD-1 on hPD-1-expressing Jurkat cells (Promega, Catalog No.: J1252) (human, UniProt Q15116 25-288); test: flow cytometry, blocking of 1 ug/mL unlabeled hPD-L1 binding to hPD-1-expressing Jurkat cells
T2 construct: whole, on cells; also called hPD-1 of Jurkat cells; Jurkat cells expressing hPD-1
Description: The blocking of ligand binding was assayed by flow cytometry. […] The mixture was placed on ice for 30 minutes, washed 3 times with FACS buffer (PBS containing 0.3% BSA), and incubated with PE-labeled goat anti-human Fc on ice for another 30 minutes. Cells were washed three more times with FACS buffer and analyzed by flow cytometry. Data were analyzed using nonlinear regression of Prism software, and IC₅₀ values were calculated.

[4] = target: T2, hPD-1 on hPD-1-expressing Jurkat cells …; test: cell-based or functional assay
[5] = target: T1, hPD-1 (Sino Biological Inc., Catalog …); test: BLI (ForteBio Octet), biotinylated hPD-1 on streptavidin biosensor, antibody in solution, 1:1 global fit
Description: The assay was performed by coupling a hPD-1 fusion protein to a streptavidin biosensor using biotin.
as §1

[6] = target: T1, hPD-1 (Sino Biological Inc., Catalog …); test: ELISA, hPD-1 coated on the plate
Description: The binding of the antibodies to hPD-1 was determined by enzyme-linked immunosorbent assay (ELISA). hPD-1 was coated on a 96-well plate by incubation overnight at 4° C. After coating, the plate was washed 5 times with PBST. […] After the binding, the plate was washed 5 times with PBST. The resulting solution was incubated at room temperature in PBST that contained peroxidase (HRP)-labeled goat anti-mouse IgG solution diluted to 1/10000 for 1 hour, washed again, and developed with TMB.

[7] = target: T1, hPD-1 (Sino Biological Inc., Catalog …); test: SPR (Biacore), antibody captured on protein A chip, PD-1 in solution 0.625-10 nM, 1:1 Langmuir fit
Description: A protein A chip was used for detection. […] Then the flow rate was adjusted to 30 μl/min, and PD-1 solutions of different concentrations (0.625 nM, 1.25 nM, 2.5 nM, 5 nM, and 10 nM) were fed in sequence, with a binding time of 180 s and a dissociation time of 1,200 s.

T1 sequence (Q15116 25-167): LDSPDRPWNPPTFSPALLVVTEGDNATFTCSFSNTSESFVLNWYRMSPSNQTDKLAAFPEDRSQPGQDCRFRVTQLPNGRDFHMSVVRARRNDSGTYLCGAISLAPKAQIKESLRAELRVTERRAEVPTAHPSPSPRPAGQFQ
hPD-1 (Sino Biological Inc., Catalog No.: 10377-H03H-B) (human), sequence (Q15116 25-167): as above
T2 sequence (Q15116 25-288): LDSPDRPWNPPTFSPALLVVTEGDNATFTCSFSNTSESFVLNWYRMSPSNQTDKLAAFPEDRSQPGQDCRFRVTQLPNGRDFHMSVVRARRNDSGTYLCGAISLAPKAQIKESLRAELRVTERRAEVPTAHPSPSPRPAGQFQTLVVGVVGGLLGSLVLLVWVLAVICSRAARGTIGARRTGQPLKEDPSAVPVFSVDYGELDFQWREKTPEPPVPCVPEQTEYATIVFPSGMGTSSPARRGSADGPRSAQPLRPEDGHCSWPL

Binder | Kd [1] | Kd [2] | EC50 [6] | other results
CL1 VH (SEQ ID NO: 7) / CL1 VL (SEQ ID NO: 8), scFv (scFv, part only; not given: linker, domain order, tag, V domains shown, not shown: another chain or arm of the molecule; small tags and cut ends) VH: QVQLVQSGVEVKKPGASVKVSCKASGYTFTNYYMYWVRQAPGQGLEWMGGINPSNGGTNFNEKFKNRVTLTTDSSTTTAYMELKSLQFDDTAVYYCAARDYRLDMGFEFWGQGTTVTVSS VL: EIVLTQSPATLSLSPGERATLSCRASKGVSTSGYSYLHWYQQKPGQAPRLLIYLASYLESGVPARFSGSGSGTDFTLTISSLEPEDFAVYYCQHAYDLPLTFGGGTKVEIK | 0.082 nM | – | – | –
CL1 VH (SEQ ID NO: 7) / CL5 VL (SEQ ID NO: 10), IgG4 (antibody, V domains shown, Form IgG4) VH: QVQLVQSGVEVKKPGASVKVSCKASGYTFTNYYMYWVRQAPGQGLEWMGGINPSNGGTNFNEKFKNRVTLTTDSSTTTAYMELKSLQFDDTAVYYCAARDYRLDMGFEFWGQGTTVTVSS VL: EIVLTQSPATLSLSPGERATLSCRASKGVSTSGYSYLHWYQQKPGQAPRLLIYLASYLESGVPARFSGSGSGTDFTLTISSLEPEDFAVYYCQHSYDLPLTFGGGTKVEIK | – | 0.076 nM | – | –
antibody CL1 (antibody, human IgG4 S228P, kappa, V domains shown, also called anti-hPD-1 antibody CL1; CL1 VH / CL1 VL IgG4) VH: QVQLVQSGVEVKKPGASVKVSCKASGYTFTNYYMYWVRQAPGQGLEWMGGINPSNGGTNFNEKFKNRVTLTTDSSTTTAYMELKSLQFDDTAVYYCAARDYRLDMGFEFWGQGTTVTVSS VL: EIVLTQSPATLSLSPGERATLSCRASKGVSTSGYSYLHWYQQKPGQAPRLLIYLASYLESGVPARFSGSGSGTDFTLTISSLEPEDFAVYYCQHAYDLPLTFGGGTKVEIKR | – | 0.0207 nM | 0.208 nM | IC50 [3]: 0.77 nM; Assay for the functional activity EC50 [4]: 0.269 µg/mL; Kd [5]: 0.0207 nM; koff [5]: 4.11e-05 s⁻¹; kon [5]: 1.98e+06 M⁻¹ s⁻¹; Kd [7]: 0.606 nM; koff [7]: 0.0005 s⁻¹; kon [7]: 825000 M⁻¹ s⁻¹
CL1 VH (SEQ ID NO: 7) / CL2 VL (SEQ ID NO: 38), scFv (scFv, part only; not given: linker, domain order, tag, V domains shown, not shown: another chain or arm of the molecule; small tags and cut ends) VH: QVQLVQSGVEVKKPGASVKVSCKASGYTFTNYYMYWVRQAPGQGLEWMGGINPSNGGTNFNEKFKNRVTLTTDSSTTTAYMELKSLQFDDTAVYYCAARDYRLDMGFEFWGQGTTVTVSS VL: EIVLTQSPATLSLSPGERATLSCRASKGVSTSGYSYLHWYQQKPGQAPRLLIYLASYLESGVPARFSGSGSGTDFTLTISSLEPEDFAVYYCQHSYGLPLTFGGGTKVEIK | 0.447 nM | – | – | –
CL1 VH (SEQ ID NO: 7) / CL7 VL (SEQ ID NO: 40), scFv (scFv, part only; not given: linker, domain order, tag, V domains shown, not shown: another chain or arm of the molecule; small tags and cut ends) VH: QVQLVQSGVEVKKPGASVKVSCKASGYTFTNYYMYWVRQAPGQGLEWMGGINPSNGGTNFNEKFKNRVTLTTDSSTTTAYMELKSLQFDDTAVYYCAARDYRLDMGFEFWGQGTTVTVSS VL: EIVLTQSPATLSLSPGERATLSCRASKGVSTSGYSYLHWYQQKPGQAPRLLIYLASYLESGVPARFSGSGSGTDFTLTISSLEPEDFAVYYCQHSYSFPLTFGGGTKVEIK | 0.149 nM | – | – | –
antibody CL5 (antibody, human IgG4, V domains shown) VH: QVQLVQSGVEVKKPGASVKVSCKASGYTFTNYYMYWVRQAPGQGLEWMGGINPSNGGTNFNEKFKNRVTLTTDSSTTTAYMELKSLQFDDTAVYYCAARDYRFDMGFEYWGQGTTVTVSS VL: EIVLTQSPATLSLSPGERATLSCRASKGVSTSGYSYLHWYQQKPGQAPRLLIYLASYLESGVPARFSGSGSGTDFTLTISSLEPEDFAVYYCQHSYDLPLTFGGGTKVEIK | – | – | 0.399 nM | Assay for the functional activity EC50 [4]: 0.932 µg/mL

More lines, main results first:

Kd [1] | Kd [2] | EC50 [6] | Binder | other results
0.143 nM | – | – | CL1 VH (SEQ ID NO: 7) / CL5 VL (SEQ ID NO: 10), scFv (scFv, part only; not given: linker, domain order, tag, V domains shown, not shown: another chain or arm of the molecule; small tags and cut ends) VH: QVQLVQSGVEVKKPGASVKVSCKASGYTFTNYYMYWVRQAPGQGLEWMGGINPSNGGTNFNEKFKNRVTLTTDSSTTTAYMELKSLQFDDTAVYYCAARDYRLDMGFEFWGQGTTVTVSS VL: EIVLTQSPATLSLSPGERATLSCRASKGVSTSGYSYLHWYQQKPGQAPRLLIYLASYLESGVPARFSGSGSGTDFTLTISSLEPEDFAVYYCQHSYDLPLTFGGGTKVEIK | –
0.518 nM | – | – | CL1 VH (SEQ ID NO: 7) / CL9 VL (SEQ ID NO: 12), scFv (scFv, part only; not given: linker, domain order, tag, V domains shown, not shown: another chain or arm of the molecule; small tags and cut ends) VH: QVQLVQSGVEVKKPGASVKVSCKASGYTFTNYYMYWVRQAPGQGLEWMGGINPSNGGTNFNEKFKNRVTLTTDSSTTTAYMELKSLQFDDTAVYYCAARDYRLDMGFEFWGQGTTVTVSS VL: EIVLTQSPATLSLSPGERATLSCRASKGVSTSGYSYLHWYQQKPGQAPRLLIYLASYLESGVPARFSGSGSGTDFTLTISSLEPEDFAVYYCQHSYGLPVTFGGGTKVEIK | –
– | 0.229 nM | – | CL1 VH (SEQ ID NO: 7) / CL9 VL (SEQ ID NO: 12), IgG4 (antibody, V domains shown, Form IgG4) VH: QVQLVQSGVEVKKPGASVKVSCKASGYTFTNYYMYWVRQAPGQGLEWMGGINPSNGGTNFNEKFKNRVTLTTDSSTTTAYMELKSLQFDDTAVYYCAARDYRLDMGFEFWGQGTTVTVSS VL: EIVLTQSPATLSLSPGERATLSCRASKGVSTSGYSYLHWYQQKPGQAPRLLIYLASYLESGVPARFSGSGSGTDFTLTISSLEPEDFAVYYCQHSYGLPVTFGGGTKVEIK | –
– | – | 0.451 nM | antibody CL2 (antibody, human IgG4, V domains shown) VH: QVQLVQSGVEVKKPGASVKVSCKASGYTFTNYYMYWVRQAPGQGLEWMGGINPSNGGTNFNEKFKNRVTLTTDSSTTTAYMELKSLQFDDTAVYYCAARDYKFDMGFEYWGQGTTVTVSS VL: EIVLTQSPATLSLSPGERATLSCRASKGVSTSGYSYLHWYQQKPGQAPRLLIYLASYLESGVPARFSGSGSGTDFTLTISSLEPEDFAVYYCQHSYGLPLTFGGGTKVEIK | –
– | 0.189 nM | – | CL1 VH (SEQ ID NO: 7) / CL2 VL (SEQ ID NO: 38), IgG4 (antibody, V domains shown, Form IgG4) VH: QVQLVQSGVEVKKPGASVKVSCKASGYTFTNYYMYWVRQAPGQGLEWMGGINPSNGGTNFNEKFKNRVTLTTDSSTTTAYMELKSLQFDDTAVYYCAARDYRLDMGFEFWGQGTTVTVSS VL: EIVLTQSPATLSLSPGERATLSCRASKGVSTSGYSYLHWYQQKPGQAPRLLIYLASYLESGVPARFSGSGSGTDFTLTISSLEPEDFAVYYCQHSYGLPLTFGGGTKVEIK | –
– | 0.061 nM | – | CL1 VH (SEQ ID NO: 7) / CL7 VL (SEQ ID NO: 40), IgG4 (antibody, V domains shown, Form IgG4) VH: QVQLVQSGVEVKKPGASVKVSCKASGYTFTNYYMYWVRQAPGQGLEWMGGINPSNGGTNFNEKFKNRVTLTTDSSTTTAYMELKSLQFDDTAVYYCAARDYRLDMGFEFWGQGTTVTVSS VL: EIVLTQSPATLSLSPGERATLSCRASKGVSTSGYSYLHWYQQKPGQAPRLLIYLASYLESGVPARFSGSGSGTDFTLTISSLEPEDFAVYYCQHSYSFPLTFGGGTKVEIK | –
– | – | 0.346 nM | antibody CL7 (antibody, human IgG4, V domains shown) VH: QVQLVQSGVEVKKPGASVKVSCKASGYTFTNYYMYWVRQAPGQGLEWMGGINPSNGGTNFNEKFKNRVTLTTDSSTTTAYMELKSLQFDDTAVYYCAARDYRFDMGFEFWGQGTTVTVSS VL: EIVLTQSPATLSLSPGERATLSCRASKGVSTSGYSYLHWYQQKPGQAPRLLIYLASYLESGVPARFSGSGSGTDFTLTISSLEPEDFAVYYCQHSYSFPLTFGGGTKVEIK | –
– | – | 1.34 nM | antibody CL6 (antibody, human IgG4, V domains shown) VH: QVQLVQSGVEVKKPGASVKVSCKASGYTFTNYYMYWVRQAPGQGLEWMGGINPSNGGTNFNEKFKNRVTLTTDSSTTTAYMELKSLQFDDTAVYYCAARDYRFDMGFEFWGQGTTVTVSS VL: EIVLTQSPATLSLSPGERATLSCRASKGVSTSGYSYLHWYQQKPGQAPRLLIYLASYLESGVPARFSGSGSGTDFTLTISSLEPEDFAVYYCQHSYDLPLTFGGGTKVEIK | –
– | – | 0.594 nM | antibody CL9 (antibody, human IgG4, V domains shown) VH: QVQLVQSGVEVKKPGASVKVSCKASGYTFTNYYMYWVRQAPGQGLEWMGGINPSNGGTNFNEKFKNRVTLTTDSSTTTAYMELKSLQFDDTAVYYCAARDYKFDMGFEFWGQGTTVTVSS VL: EIVLTQSPATLSLSPGERATLSCRASKGVSTSGYSYLHWYQQKPGQAPRLLIYLASYLESGVPARFSGSGSGTDFTLTISSLEPEDFAVYYCQHSYGLPVTFGGGTKVEIK | –
